These results are taken from the supplement of paper PMC10724198.

Holding throughout (experiment): protein stability index of tFT-peptide fusion (C-terminal peptide) (PSI (0-1 scale)); higher = more stable (slower turnover)
In series [1] the test system is Saccharomyces cerevisiae. The note with it: temperature: 30 C. Here is the method:
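MPS profiling in S. cerevisiae of the yeast C-terminome library: the last 12 aa of each annotated ORF are fused to the C-terminus of a sfGFP-mCherry timer, after a GGGS linker. Cells are FACS-sorted into 8 mCherry/sfGFP bins and deep-sequenced. PSI runs from 0 (unstable) to 1 (stable); wild type and das1Δ backgrounds, two technical replicates each.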

Series [2] concerns Saccharomyces cerevisiae. The note with it: genetic background: wild type; temperature: 30 C.
Series [3] has as its system Saccharomyces cerevisiae. Here is the method: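 MPS profiling in S. cerevisiae of the tFT-X12 degron library: putative degron peptides plus stable controls, 12 aa, fused to the C-terminus of a sfGFP-mCherry timer. Cells are FACS-sorted into 8 mCherry/sfGFP bins and deep-sequenced. PSI runs from 0 (unstable) to 1 (stable). Backgrounds are wild type, das1Δ and doa10Δ at 30 °C, and wild type, das1Δ, cdc34-1 and cdc53-1 at 37 °C; 2-3 technical replicates each.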

Setting [4] is: genetic background: das1 deletion.
The mark [5] stands for this setting: genetic background: cdc34-1, temperature: 37 C.
The mark [6] stands for this setting: genetic background: cdc53-1, temperature: 37 C.
The mark [7] stands for this setting: genetic background: das1 deletion, temperature: 30 C.
Where [8] appears, read: genetic background: das1 deletion, temperature: 37 C.
[9] abbreviates: genetic background: doa10 deletion, temperature: 30 C.
Setting [10] is: genetic background: wild type, temperature: 30 C.
The mark [11] stands for this setting: genetic background: wild type, temperature: 37 C.

± gives the standard deviation of the averaged measurements.

For the sequence AAELRDISQCDV [OPI8 C-terminal 12 aa], the results for the protein stability index in series [1] (setting [4]) and in series [1] (genetic background: wild type) were 0.682 ± 0.024 and 0.69 ± 0.088, respectively.
On to AANAEILSKINK [POX1 C-terminal 12 aa], for which the protein stability index in series [1] (setting [4]) amounted to 0.713 ± 0.017; in series [1] (genetic background: wild type), 0.683 ± 0.0089.
As for ADGNPLQALPQL [TOM40 C-terminal 12 aa], the protein stability index came to 0.7077 ± 0.0065 in series [1] (setting [4]) and 0.666 ± 0.024 in series [1] (genetic background: wild type).
As to AEETAVFTLPNV [GGA2 C-terminal 12 aa], the protein stability index in series [1] (setting [4]) was 0.7266 ± 0.0034; in series [1] (genetic background: wild type) it was 0.694 ± 0.0082.
The like results for AEIIDSLLEQIN [NSI1 C-terminal 12 aa] were, in that order, 0.744 ± 0.019 and 0.6797 ± 0.0017.
The like results for AERFDNTEVLHL [STE13 C-terminal 12 aa] were, in that order, 0.7011 ± 0.0037 and 0.689 ± 0.035.
For the sequence VLPCSLVPLRLH, the protein stability index in series [2] worked out at 0.445 ± 0.014; in series [3] (setting [5]), 0.66 ± 0.015; in series [3] (setting [6]) it was 0.704 ± 0.029; in series [3] (setting [7]) it was 0.642 ± 0.012; in series [3] (setting [8]), 0.702 ± 0.011; in series [3] (setting [9]), 0.349 ± 0.013. The protein stability index in series [3] (setting [10]) was found to be 0.374 ± 0.026; in series [3] (setting [11]), 0.548 ± 0.0098.
On to VLPLRCSWAAQG, for which the protein stability index in series [2] was found to be 0.39 ± 0.035; in series [3] (setting [5]), 0.693 ± 0.007; in series [3] (setting [6]) it was 0.7521 ± 0.005; in series [3] (setting [7]), 0.639 ± 0.026; in series [3] (setting [8]) it was 0.747 ± 0.027; in series [3] (setting [9]), 0.246 ± 0.019. Besides, the protein stability index in series [3] (setting [10]) turned out to be 0.298 ± 0.013; in series [3] (setting [11]) it was 0.538 ± 0.044.
Regarding VMLIRVSRGIKC, the protein stability index turned out to be 0.41 ± 0.0097 in series [2]; 0.359 ± 0.044 in series [3] (setting [5]); 0.463 ± 0.13 in series [3] (setting [6]); 0.293 ± 0.024 in series [3] (setting [7]); 0.4846 ± 0.0047 in series [3] (setting [8]); 0.242 ± 0.0097 in series [3] (setting [9]). Further, the protein stability index in series [3] (setting [10]) amounted to 0.29 ± 0.038; in series [3] (setting [11]) it was 0.473 ± 0.0067.
VMLVISRLLLLF: the protein stability index in series [2] came to 0.174 ± 0.021; in series [3] (setting [5]) it was 0.465 ± 0.058; in series [3] (setting [6]), 0.523 ± 0.0094; in series [3] (setting [7]), 0.455 ± 0.033; in series [3] (setting [8]), 0.613 ± 0.018; in series [3] (setting [9]) it was 0.111 ± 0.0019. Moreover, the protein stability index in series [3] (setting [10]) was found to be 0.105 ± 0.017; in series [3] (setting [11]), 0.168 ± 0.018.
VPGPSPPRFTQR: the protein stability index came to 0.559 ± 0.1 in series [2]; 0.7134 ± 0.0016 in series [3] (setting [5]); 0.762 ± 0.016 in series [3] (setting [6]); 0.6584 ± 0.0019 in series [3] (setting [7]); 0.741 ± 0.0094 in series [3] (setting [8]); 0.644 ± 0.028 in series [3] (setting [9]). The protein stability index in series [3] (setting [10]) turned out to be 0.656 ± 0.011; in series [3] (setting [11]) it was 0.692 ± 0.025.
With VPVWHTVKLYCF, the protein stability index in series [2] stood at 0.159 ± 0.061; in series [3] (setting [5]), 0.342 ± 0.0081; in series [3] (setting [6]), 0.439 ± 0.0077; in series [3] (setting [7]) it was 0.345 ± 0.038; in series [3] (setting [8]) it was 0.4934 ± 0.0021; in series [3] (setting [9]), 0.073 ± 0.00079. Besides, the protein stability index in series [3] (setting [10]) was 0.088 ± 0.017; in series [3] (setting [11]), 0.0851 ± 0.018.
Take VPWSKIAARLII: the protein stability index in series [2] was 0.446 ± 0.068; in series [3] (setting [5]), 0.6593 ± 0.0029; in series [3] (setting [6]), 0.706 ± 0.011; in series [3] (setting [7]), 0.618 ± 0.02; in series [3] (setting [8]), 0.734 ± 0.022; in series [3] (setting [9]), 0.227 ± 0.015. The results for the protein stability index in series [3] (setting [10]) and in series [3] (setting [11]) were 0.315 ± 0.054 and 0.5015 ± 0.0036, respectively.
